The source of these data is PMC10716131 (2023).

The target of assay [1] is T1, DDB1:CRBN complex, full-length human CRBN (residues 1–442) with N-terminal biotinylated Avi-tag, co-expressed … (human, UniProt Q96SW2 1-442; Q16531 1-1140, biotin on the Avi-tag (BirA, 100% efficiency)). Nature of the assay: SPR; pomalidomide 5 uM. A general note: SPR reads the build-up and loss of mass on a sensor chip optically.
Assay [2] has as its target T1, DDB1:CRBN complex, full-length human …. Nature of the assay: SPR; CC-220.
Assay [3] shares this target. The experiment in a line: SPR; CC-220 5 uM.
The target is the same in assay [4]. Nature of the assay: SPR; CC-220. This is another data set of the same source.
For assay [5] the target is unchanged. Nature of the assay: SPR; pomalidomide.
For assay [6] the target is unchanged. The experiment in a line: SPR; pomalidomide. The source holds these as a separate data set.

T1 sequence (Q96SW2 whole entry, chain 1 of 2, the tested form may be a part): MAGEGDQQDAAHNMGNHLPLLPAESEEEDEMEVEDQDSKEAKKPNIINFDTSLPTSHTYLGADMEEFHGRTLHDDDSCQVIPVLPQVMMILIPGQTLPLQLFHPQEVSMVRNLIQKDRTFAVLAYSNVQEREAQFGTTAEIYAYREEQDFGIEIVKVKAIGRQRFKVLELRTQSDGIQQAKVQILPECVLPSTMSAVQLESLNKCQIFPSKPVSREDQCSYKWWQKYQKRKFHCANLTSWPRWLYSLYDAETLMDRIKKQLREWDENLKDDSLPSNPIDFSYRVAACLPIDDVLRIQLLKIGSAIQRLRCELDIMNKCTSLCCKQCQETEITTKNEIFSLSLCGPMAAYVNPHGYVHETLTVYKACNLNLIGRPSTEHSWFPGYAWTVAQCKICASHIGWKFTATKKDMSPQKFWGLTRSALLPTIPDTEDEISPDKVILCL
T1 sequence (Q16531 whole entry, chain 2 of 2, the tested form may be a part): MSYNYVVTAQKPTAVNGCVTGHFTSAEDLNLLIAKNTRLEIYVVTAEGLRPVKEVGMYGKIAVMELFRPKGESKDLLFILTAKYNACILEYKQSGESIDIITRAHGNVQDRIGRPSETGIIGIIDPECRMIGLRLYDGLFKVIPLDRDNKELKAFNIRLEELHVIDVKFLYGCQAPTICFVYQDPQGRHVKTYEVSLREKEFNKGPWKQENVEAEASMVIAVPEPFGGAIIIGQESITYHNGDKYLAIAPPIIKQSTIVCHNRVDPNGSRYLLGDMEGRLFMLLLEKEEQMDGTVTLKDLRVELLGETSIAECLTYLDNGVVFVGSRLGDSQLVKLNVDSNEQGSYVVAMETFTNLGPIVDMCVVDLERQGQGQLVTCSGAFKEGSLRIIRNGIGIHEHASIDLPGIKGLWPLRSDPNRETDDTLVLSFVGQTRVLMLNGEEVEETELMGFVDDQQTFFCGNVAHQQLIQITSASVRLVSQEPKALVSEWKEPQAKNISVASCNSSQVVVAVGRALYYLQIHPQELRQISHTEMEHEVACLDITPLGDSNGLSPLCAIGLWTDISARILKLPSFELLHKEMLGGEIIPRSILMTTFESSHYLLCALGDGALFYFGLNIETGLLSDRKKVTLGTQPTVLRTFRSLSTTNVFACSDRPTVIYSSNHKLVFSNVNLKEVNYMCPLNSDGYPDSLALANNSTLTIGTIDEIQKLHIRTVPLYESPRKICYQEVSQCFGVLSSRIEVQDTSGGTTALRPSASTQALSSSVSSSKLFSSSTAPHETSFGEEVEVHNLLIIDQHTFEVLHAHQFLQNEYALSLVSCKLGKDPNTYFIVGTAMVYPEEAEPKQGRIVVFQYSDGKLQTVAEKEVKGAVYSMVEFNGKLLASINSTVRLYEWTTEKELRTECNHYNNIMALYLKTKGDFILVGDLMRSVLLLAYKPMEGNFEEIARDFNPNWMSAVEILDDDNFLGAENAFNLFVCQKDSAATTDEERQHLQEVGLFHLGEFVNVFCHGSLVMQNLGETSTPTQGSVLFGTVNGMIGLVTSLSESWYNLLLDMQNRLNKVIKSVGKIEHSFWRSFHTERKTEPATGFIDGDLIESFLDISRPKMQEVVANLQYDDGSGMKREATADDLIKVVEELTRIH

B1: Human SALL4 ZF2(405–432) (domain or fragment)
chain: not shown
Regarding B1, in assay [1], binding was characterised by a dissociation constant (Kd) of 67.1 µM.

B2: Human SALL4 ZF1-2(370–454) (domain or fragment)
chain: DVKPKDEAALYKHKCKYCSKVFGTDSSLQIHLRSHTGERPFVCSVCGHRFTTKGNLKVHFHRHPQVKANPQLFAEFQDKVAAGNG
Take B2: the koff in assay [2] is 0.042 s⁻¹; in assay [5], 0.015 s⁻¹. Further, the Kd in assay [3] stood at 0.31 µM; in assay [4], 0.28 µM; in assay [1], 0.06 µM; in assay [6] it was 0.06 µM.
TGERPFVCSVCGHRFTTKGNLKVHFHRHPQVKA (domain or fragment) [Human SALL4 ZF2(405–437)]: the Kd in assay [3] worked out at 4 µM.

B3: Human SALL4 ZF1-2(379–432) (domain or fragment)
chain: LYKHKCKYCSKVFGTDSSLQIHLRSHTGERPFVCSVCGHRFTTKGNLKVHFHRH
Regarding B3, the koff in assay [2] stood at 0.34 s⁻¹; in assay [5] it was 0.26 s⁻¹. In addition, the Kd was 150 µM in assay [4] and 2.1 µM in assay [6].
On to TGERPFVCSVCGHRFTTKGNLKVHFHRHPQVKANPQLFAEFQDKVAAGNG (domain or fragment) [Human SALL4 ZF2(405–454)], for which the Kd in assay [3] came out at 2.1 µM; in assay [1], 0.7 µM.

As a reminder, the Kd is the concentration at which binding is half-saturated. Low values mean a tighter complex, high ones a looser complex. Broadly, the koff is the rate constant with which the complex falls apart.
